From patent US20240309103A1 (Regeneron, published 2024)

T1: human NPR1 on HEK293/hNPR1.myc.DDK cells with 10 nM hANP (NPR1-ANP complex) (human, UniProt P01160 124-151)
T1 construct: also called NPR1-ANP Complex on the Cell Surface
T1 sequence: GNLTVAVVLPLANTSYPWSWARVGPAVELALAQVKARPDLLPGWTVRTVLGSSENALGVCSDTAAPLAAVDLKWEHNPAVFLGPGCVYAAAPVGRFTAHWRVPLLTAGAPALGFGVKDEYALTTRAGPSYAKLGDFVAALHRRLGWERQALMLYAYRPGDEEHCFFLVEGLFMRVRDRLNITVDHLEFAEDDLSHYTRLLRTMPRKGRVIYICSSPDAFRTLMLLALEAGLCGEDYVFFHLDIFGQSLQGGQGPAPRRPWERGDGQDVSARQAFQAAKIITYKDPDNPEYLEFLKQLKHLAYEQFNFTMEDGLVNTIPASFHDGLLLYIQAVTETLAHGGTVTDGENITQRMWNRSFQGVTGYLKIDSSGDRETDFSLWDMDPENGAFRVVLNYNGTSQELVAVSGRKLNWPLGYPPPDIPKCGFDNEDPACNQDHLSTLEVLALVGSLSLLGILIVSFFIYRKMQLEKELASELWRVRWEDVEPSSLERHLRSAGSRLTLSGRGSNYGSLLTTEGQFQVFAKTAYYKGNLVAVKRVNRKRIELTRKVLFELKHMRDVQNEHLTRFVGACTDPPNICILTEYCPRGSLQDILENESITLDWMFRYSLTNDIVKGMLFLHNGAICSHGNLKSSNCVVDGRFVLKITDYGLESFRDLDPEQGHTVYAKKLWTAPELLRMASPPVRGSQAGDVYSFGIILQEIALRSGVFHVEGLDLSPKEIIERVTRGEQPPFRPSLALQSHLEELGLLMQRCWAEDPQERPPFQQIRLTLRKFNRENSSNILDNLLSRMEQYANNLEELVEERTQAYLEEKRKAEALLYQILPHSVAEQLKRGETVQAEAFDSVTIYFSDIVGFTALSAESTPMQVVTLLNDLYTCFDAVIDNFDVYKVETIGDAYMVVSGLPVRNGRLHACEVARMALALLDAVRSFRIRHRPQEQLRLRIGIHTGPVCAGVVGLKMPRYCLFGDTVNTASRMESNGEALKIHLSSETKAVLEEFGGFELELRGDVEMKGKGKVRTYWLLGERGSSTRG
T1 sequence (peptide): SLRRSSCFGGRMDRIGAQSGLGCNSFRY

T2: human NPR1 on HEK293/hNPR1.myc.DDK cells (0 hANP) (human, UniProt P16066 33-1061)
T2 construct: Full-length receptor on engineered HEK293 cells, no ANP added; also called HEK293/hNPR1.myc.DKK
T2 sequence: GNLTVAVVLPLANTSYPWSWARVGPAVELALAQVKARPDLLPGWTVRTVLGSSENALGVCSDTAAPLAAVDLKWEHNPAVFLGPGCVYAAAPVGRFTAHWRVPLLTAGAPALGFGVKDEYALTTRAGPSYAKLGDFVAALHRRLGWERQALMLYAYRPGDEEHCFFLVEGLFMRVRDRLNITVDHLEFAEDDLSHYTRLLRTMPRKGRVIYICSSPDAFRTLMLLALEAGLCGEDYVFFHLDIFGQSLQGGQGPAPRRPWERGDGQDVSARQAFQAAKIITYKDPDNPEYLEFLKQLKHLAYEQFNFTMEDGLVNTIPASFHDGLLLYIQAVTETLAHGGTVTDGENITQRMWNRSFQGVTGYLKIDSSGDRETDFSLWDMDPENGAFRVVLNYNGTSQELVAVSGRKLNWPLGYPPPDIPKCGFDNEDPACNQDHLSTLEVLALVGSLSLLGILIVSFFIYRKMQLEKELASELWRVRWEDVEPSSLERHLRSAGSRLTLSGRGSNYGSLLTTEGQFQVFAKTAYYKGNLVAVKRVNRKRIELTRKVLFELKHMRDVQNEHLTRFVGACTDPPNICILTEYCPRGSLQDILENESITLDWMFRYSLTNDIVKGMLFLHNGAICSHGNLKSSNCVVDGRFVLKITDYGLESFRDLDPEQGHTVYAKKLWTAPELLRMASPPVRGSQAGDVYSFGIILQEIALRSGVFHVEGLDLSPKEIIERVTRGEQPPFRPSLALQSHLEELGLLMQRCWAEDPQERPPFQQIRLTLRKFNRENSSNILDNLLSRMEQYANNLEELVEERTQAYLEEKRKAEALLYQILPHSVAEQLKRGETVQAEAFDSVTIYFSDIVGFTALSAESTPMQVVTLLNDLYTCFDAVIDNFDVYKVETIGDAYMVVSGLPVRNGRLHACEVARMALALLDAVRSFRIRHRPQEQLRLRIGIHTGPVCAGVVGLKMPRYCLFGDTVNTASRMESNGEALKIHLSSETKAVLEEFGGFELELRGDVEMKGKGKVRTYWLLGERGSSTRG

T3: mNPR1-mFc (mouse)
T3 construct: also called mouse NPR1 extracellular domain expressed with a C-terminal mouse IgG2a
T3 chain: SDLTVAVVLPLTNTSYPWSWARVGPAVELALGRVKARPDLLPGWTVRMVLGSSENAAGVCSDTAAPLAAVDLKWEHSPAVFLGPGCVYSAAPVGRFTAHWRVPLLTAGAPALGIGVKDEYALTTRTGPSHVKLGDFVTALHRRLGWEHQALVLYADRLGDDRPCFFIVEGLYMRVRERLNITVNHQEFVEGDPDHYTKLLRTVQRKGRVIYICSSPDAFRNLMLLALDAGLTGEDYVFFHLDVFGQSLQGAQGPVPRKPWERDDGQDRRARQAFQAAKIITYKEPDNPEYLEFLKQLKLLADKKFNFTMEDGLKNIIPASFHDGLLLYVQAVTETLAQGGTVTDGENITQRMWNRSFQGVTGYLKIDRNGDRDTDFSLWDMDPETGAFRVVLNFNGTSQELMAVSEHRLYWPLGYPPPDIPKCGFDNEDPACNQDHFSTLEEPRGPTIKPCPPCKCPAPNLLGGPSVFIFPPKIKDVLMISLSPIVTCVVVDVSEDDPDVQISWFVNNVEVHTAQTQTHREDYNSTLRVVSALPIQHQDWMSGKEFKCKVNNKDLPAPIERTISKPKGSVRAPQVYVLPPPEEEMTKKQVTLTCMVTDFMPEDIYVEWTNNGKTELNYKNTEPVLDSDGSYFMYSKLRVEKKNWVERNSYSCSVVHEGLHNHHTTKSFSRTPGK

B1: mAb25491 (antibody, human IgG4, V domains shown)
VH: QVQLVQSGAEVMKPGASVKVSCKASGYTFTGYYIHWVRQAPGQGLEWMGWITPNSGATNYAQKFQGRVTLTRDTSISTAYMELTRLKSDDTAVYYCARGGQLEFFYYYYGMDVWGQGTTVTVSS
VL: DIQMTQSPSSLSASAGDRVTITCRASQSIDSYLNWYQQKPGKAPKLLISATSGFQSGVPSRFSGSGSGTDFTLTISSLQPEDFGTYYCQQSYTTPITFGQGTRLEIK
B2: mAb22033 (antibody, human IgG4, V domains shown)
VH: QVQLVQSGAEVKKPGASVTVSCKASGYTFTDYYMHWVRQAPGQGLEWMGWIKPNSGGTNSAQRFQGRITMTWDTSISTAYMELSRLRSDDTAVYYCSRGGPVMNYYYYYGMDVWGQGTTVTVSS
VL: NIQMTQSPSSLSASVGDRVTITCRASQSIDSYLNWYQQKPGKAPKLLIYVASSLQSGVPSRFSGSGSGKDFTLTISSLQPEDFATYYCQQSYSIPTFGQGTRLEIK
B3: mAb22035 (antibody, human IgG4, V domains shown)
VH: EVQLVESGGGLVQPGRSLRLSCAASGFTFDDYAMHWVRQAPGKGLEWVSGISWNSGTIGYADSVKGRFTMSRDNAKNSLYLQMNSLRPEDTALYYCAKDMGVSLALWGAFDIWGQGTMVTVSS
VL: DIQMTQSPSSLSASVGDKVTITCRASQNIRTYLNWYQQKPGKAPKVLISTASSLQSGVPSRFSGSGSGTDFTLTISSLQPEDFAVFYCQQSFGIPRTFGQGTKVEIK
B4: mAb25502 (antibody, human IgG4, V domains shown)
VH: QLQLQESGPGLVKPSETLSLTCTVSGGSISSSSYYWGWIRQPPGKGLEWIGSIYYSGSPYYIPSLKSRVTISVDTSKNQFSLKLSSVTAADTAMYYCARQGRGIARAGPFDYWGQGTLVTVSS
VL: DIQMTQSPSSLSASVGDRVTITCRASQGISNYLAWYQEKPGKVPKLLIYAASTLQSGVPSRFSGSGSGTDFTLTITSLQSEDVATYYCQKYNSAPPWTFGQGTKVEIK

Key:
[1] = target: T1, human NPR1 on HEK293/hNPR1.myc.DDK …; experiment: ECL cell binding (MSD), +10 nM hANP
Description: (§1) All cells were washed once with 1×PBS with Ca²⁺/Mg²⁺ and counted with a Cellometer™ Auto T4 cell counter (Nexcelom Bioscience). Approximately 2.0×10⁴ HEK293/hNPR1.myc.DDK or HEK293 cells were seeded separately onto 96-well carbon electrode plates (MULTI-ARRAY high bind plate, Meso Scale Discovery (MSD, Rockville, MD)) and incubated for 1 hour (h) at 37° C. Nonspecific binding sites were blocked by 2% BSA (w/v) in 1×PBS with Ca²⁺/Mg²⁺for 1 h at room temperature (RT). HEK293/hNPR1.myc. […] The plate-bound antibodies were detected with SULFO-TAG™-conjugated goat polyclonal anti-human IgG antibody specific for heavy and light chains (Jackson Immunoresearch, West Grove, PA) for 1 h, RT.
(§2) After washes, plates were developed with Read Buffer (MSD, Rockville, MD) according to manufacturer's recommended procedure and luminescent signals were recorded with a SECTOR Imager 600 (MSD, Rockville, MD). Luminescence intensity, measured in relative light units (RLU), was recorded to indicate the binding intensity of each antibody at the range of concentrations.
(§3) In addition, direct binding signals (RLU) were analyzed as a function of the antibody concentration and data were fitted with a sigmoidal (four-parameter logistic) dose-response model using R statistical package (open source).

[2] = target: T2, human NPR1 on HEK293/hNPR1.myc.DDK …; experiment: ECL cell binding (MSD), 0 hANP
Description: as §1, §2, §3

[3] = target: T2, human NPR1 on HEK293/hNPR1.myc.DDK …; experiment: cell-based or functional assay
[4] = target: T4, mfNPR1-mFc:hBNP complex (monkey; human, UniProt P16860 103-134); experiment: SPR Biacore, mAb captured by anti-human Fc, 37C
T4 construct: Receptor-Fc pre-complexed with 10-fold hBNP
Description: (§4) Equilibrium dissociation constant (KD) for different NPR1 reagents binding to purified anti-NPR1 monoclonal antibodies (mAbs) were determined using a real-time surface plasmon resonance based Biacore 4000 biosensor. All binding studies were performed in 10 mM HEPES, 150 mM NaCl, 3 mM EDTA, and 0.05% v/v Surfactant Tween-20, pH 7.4 (HBS-ET) running buffer at 25° C. and 37° C. The Biacore CM5 sensor chip surface was first derivatized by amine coupling with either mouse anti-human Fc specific mAb (GE Healthcare, #BR100839) or goat anti-human Fcy specific polyclonal antibody (Jackson ImmunoResearch Laboratories, #BR-1008-39) to capture anti-NPR1 mAbs.

[5] = target: T3, mNPR1-mFc; experiment: SPR Biacore, mAb captured by anti-human Fc, 37C
Description: as §4

[6] = target: T3, mNPR1-mFc; experiment: SPR Biacore, mAb captured by anti-human Fc, 25C
Description: as §4

Binder	EC50 [1] [nM]	Ratio at 3.7 nM Ab concentration of Cell Binding Signal (RLU) to HEK293/hNPR1.myc.DKK relative to parental HEK293 [1] [ratio]	EC50 [2] [nM]	Ratio at 3.7 nM Ab concentration of Cell Binding Signal (RLU) to HEK293/hNPR1.myc.DKK relative to parental HEK293 [2] [ratio]	% Activation (vs ANP max), Expt 1 [3] [%]	% Activation (vs. ANP max), Expt II [3] [%]	EC50 (nM), calcium flux, Expt 1 [3] [nM]	EC50 (nM), calcium flux, Expt II [3] [nM]	100 nM Ag Bound (RU) [4] [RU]	Kd [4] [nM]	koff [4] [s⁻¹]	kon [4] [M⁻¹ s⁻¹]	t½ [4] [min]	100 nM Ag Bound (RU) [5] [RU]	binding result [5]	100 nM Ag Bound (RU) [6] [RU]	binding result [6]
B1	1	78	1.6	58	74.6	104	102	43.4	146	1.6	0.00011	68900	105	1	no binding (tested: 100 nM)	1	
B2	0.82	236	0.49	207	130	129	83.7	41.6	167	1.3	8.8e-05	67500	131	1		0	no binding (tested: 100 nM)
B3	0.89	220	2.3	151	73.1	56.8	384	> 200	286	0.368	9.48e-05	258000	122	0		-1	
B4		14							139	5.65	0.000481	85200	24	1	no binding (tested: 100 nM)	1	
